Test results from PMC2239301.

Molecular target: Smy2p fused to the LexA-DNA binding domain (S. cerevisiae)
Assay: two-hybrid

Smy2p fused to the LexA-DNA binding domain (S. cerevisiae), sequence (P32909 whole entry, the tested form may be a part): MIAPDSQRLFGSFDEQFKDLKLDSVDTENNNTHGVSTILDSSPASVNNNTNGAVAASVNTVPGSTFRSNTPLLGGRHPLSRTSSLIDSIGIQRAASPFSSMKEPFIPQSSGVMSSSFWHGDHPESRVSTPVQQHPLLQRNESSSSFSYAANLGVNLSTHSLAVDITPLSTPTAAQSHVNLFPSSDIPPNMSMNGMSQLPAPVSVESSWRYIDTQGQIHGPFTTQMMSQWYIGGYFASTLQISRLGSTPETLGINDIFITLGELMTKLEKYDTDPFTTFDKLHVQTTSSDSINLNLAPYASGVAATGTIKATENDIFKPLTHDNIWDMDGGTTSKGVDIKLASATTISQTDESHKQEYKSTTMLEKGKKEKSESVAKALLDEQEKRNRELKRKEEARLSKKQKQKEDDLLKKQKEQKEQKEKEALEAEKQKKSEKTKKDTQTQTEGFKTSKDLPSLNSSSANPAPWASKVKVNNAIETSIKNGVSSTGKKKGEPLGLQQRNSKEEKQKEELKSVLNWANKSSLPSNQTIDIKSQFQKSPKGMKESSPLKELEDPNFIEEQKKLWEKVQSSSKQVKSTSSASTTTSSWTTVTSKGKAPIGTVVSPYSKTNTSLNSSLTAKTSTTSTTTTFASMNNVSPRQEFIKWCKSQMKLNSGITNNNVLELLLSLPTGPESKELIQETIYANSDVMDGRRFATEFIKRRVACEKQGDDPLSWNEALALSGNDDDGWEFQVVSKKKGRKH

β-galactosidase activity: 26 units
B1: Sec23p connected to the B42 acidic activation domain (natural protein)
chain: MDFETNEDINGVRFTWNVFPSTRSDANSNVVPVGCLYTPLKEYDELNVAPYNPVVCSGPHCKSILNPYCVIDPRNSSWSCPICNSRNHLPPQYTNLSQENMPLELQSTTIEYITNKPVTVPPIFFFVVDLTSETENLDSLKESIITSLSLLPPNALIGLITYGNVVQLHDLSSETIDRCNVFRGDREYQLEALTEMLTGQKPTGPGGAASHLPNAMNKVTPFSLNRFFLPLEQVEFKLNQLLENLSPDQWSVPAGHRPLRATGSALNIASLLLQGCYKNIPARIILFASGPGTVAPGLIVNSELKDPLRSHHDIDSDHAQHYKKACKFYNQIAQRVAANGHTVDIFAGCYDQIGMSEMKQLTDSTGGVLLLTDAFSTAIFKQSYLRLFAKDEEGYLKMAFNGNMAVKTSKDLKVQGLIGHASAVKKTDANNISESEIGIGATSTWKMASLSPYHSYAIFFEIANTAANSNPMMSAPGSADRPHLAYTQFITTYQHSSGTNRIRVTTVANQLLPFGTPAIAASFDQEAAAVLMARIAVHKAETDDGADVIRWLDRTLIKLCQKYADYNKDDPQSFRLAPNFSLYPQFTYYLRRSQFLSVFNNSPDETAFYRHIFTREDTTNSLIMIQPTLTSFSMEDDPQPVLLDSISVKPNTILLLDTFFFILIYHGEQIAQWRKAGYQDDPQYADFKALLEEPKLEAAELLVDRFPLPRFIDTEAGGSQARFLLSKLNPSDNYQDMARGGSTIVLTDDVSLQNFMTHLQQVAVSGQA
